This note sets out measurements from patent US20210087291A1.

As a reminder, the EC50 is the concentration that produces a half-maximal response. Read a low EC50 as greater potency. As a reminder, the Kd is the concentration at which binding is half-saturated. Higher therefore signals weaker binding.

Assay [1] has as its target human TIM-3 on cells (human) (UniProt Q8TDQ0). In words: flow cytometry, human CD14+ monocytes donor3.
Assay [2] has the same target. The assay can be described thus: flow cytometry, human CD14+ monocytes donor1. (A flow cytometer gives signals particle by particle.)
The target is the same in assay [3]. The assay can be described thus: flow cytometry, human CD14+ monocytes donor2.
Assay [4] concerns the target cynomolgus TIM-3 on isolated cyno CD14+ monocytes (cynomolgus). The assay can be described thus: flow cytometry, cyno CD14+ monocytes cyno3.
The target is the same in assay [5]. The assay can be described thus: flow cytometry, cyno CD14+ monocytes cyno2.
Assay [6] has the same target. In words: flow cytometry, cyno CD14+ monocytes cyno1.
Assay [7] has as its target human TIM-3 on cells (human) (UniProt Q8TDQ0). The assay can be described thus: cell ELISA, CHO-Tim3. For orientation: ELISA stands for enzyme-linked immunosorbent assay.
For assay [8], the target named is Tim3-ECD-His-Biotin (human) (UniProt Q8TDQ0). The assay can be described thus: ELISA, human Tim3.
Assay [9] has as its target human TIM-3 on cells (human) (UniProt Q8TDQ0). In words: FACS competition on RPMI-8226, competitor TIM3-0038.
The target of assay [10] is Tim3-ECD-His-Biotin (human) (UniProt Q8TDQ0). In words: ELISA, human Tim3; EC50 relative to the sample's max value.
The target of assay [11] is cynomolgus Tim3 (ELISA) (cynomolgus). In words: ELISA, cyno Tim3.
Sequence of cynomolgus Tim3 (ELISA) (cynomolgus) (chain, as listed by the source, form in doubt): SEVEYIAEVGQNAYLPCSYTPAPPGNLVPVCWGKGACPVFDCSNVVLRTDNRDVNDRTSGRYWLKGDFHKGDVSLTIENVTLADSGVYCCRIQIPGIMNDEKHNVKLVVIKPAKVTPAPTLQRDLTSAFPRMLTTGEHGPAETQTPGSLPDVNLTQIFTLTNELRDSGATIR
Assay [12] has the same target. In words: ELISA, cyno Tim3; EC50 relative to the sample's max value.
In assay [13] the target is human TIM-3 on cells (human) (UniProt Q8TDQ0). The assay can be described thus: FACS competition on RPMI-8226, competitor TIM3-0018.
Assay [14] has the same target. The assay can be described thus: FACS competition on RPMI-8226, competitor TIM3-0026.
For assay [15], the target named is monomeric cyno Tim3-ECD (cynomolgus). The assay can be described thus: SPR Biacore, antibody captured by anti-mouse IgG. (SPR reads the build-up and loss of mass on a sensor chip optically.)
Sequence of monomeric cyno Tim3-ECD (cynomolgus) (chain, as listed by the source, form in doubt): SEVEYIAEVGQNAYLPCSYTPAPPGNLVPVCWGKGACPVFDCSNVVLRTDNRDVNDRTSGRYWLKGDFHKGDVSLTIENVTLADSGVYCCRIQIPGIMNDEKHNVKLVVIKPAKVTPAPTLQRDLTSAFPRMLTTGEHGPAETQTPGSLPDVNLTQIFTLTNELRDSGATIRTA
Assay [16] deals with monomeric human Tim3-ECD (human) (UniProt Q8TDQ0). In words: SPR Biacore, antibody captured by anti-mouse IgG.
The target of assay [17] is huFc fused dimeric human Tim3-ECD (human) (UniProt Q8TDQ0). The assay can be described thus: SPR Biacore, antibody captured by anti-mouse IgG.
Assay [18] addresses human TIM-3 on cells (human) (UniProt Q8TDQ0). In words: FACS competition on RPMI-8226, competitor TIM3-0016.
Assay [19] has the same target. In words: cell ELISA, CHO-Tim3; EC50 relative to the sample's max value.
Assay [20] shares this target. The assay can be described thus: cell-based or functional assay.
Assay [21] has the same target. In words: FACS competition on RPMI-8226, competitor TIM3-0028.
The target is the same in assay [22]. In words: FACS competition on RPMI-8226, competitor TIM3-0022.

In the case of M-IgG2b (isotype control) (antibody), the values for the specific binding MFI in [1], in assay [2] and in assay [3] were 0 MFI, 0 MFI and 13 MFI, respectively.
On to M-IgG1 (isotype control) (antibody), for which the specific binding MFI in assay [1] was 213 MFI; in assay [2], 144 MFI; in assay [3], 55 MFI. Besides, the MFI in assay [4] was 83 MFI; in assay [5] it was 82 MFI; in assay [6], 72 MFI.
Consider “anti-TIM3 reference antibody F38-2E2 (BioLegend)”, for which the inflexion point in assay [7] was found to be 224 ng/mL; in assay [8] it was 86.3 ng/mL; in assay [11], 210000 ng/mL. Besides, the specific binding MFI in assay [1] was determined as 460 MFI; in assay [2] it was 516 MFI; in assay [3] it was 493 MFI. For the same substance, the results for the MFI in assay [4], in [5] and in assay [6] were 124 MFI, 136 MFI and 135 MFI, respectively. Besides, the Max % inhibition of binding was 94% in [9]; -6% in [13]; 2% in [14]; -7% in assay [18]; 75% in assay [21]; 77% in assay [22]. Moreover, the EC50 in [10] is 0.0732 µg/mL; in [12] it was 0.423 µg/mL; in [19] it was 0.35 µg/mL. Further, the values for the dissociation constant Kd in assay [15], in [16] and in [17] were 168 nM, 13.6 nM and 7.5 nM, respectively. The IFN-gamma release in MLR at 1 µg/ml, % of IL-2 control in assay [20] was determined as 7%. Moreover, the IFN-gamma release in MLR at 10 µg/ml, % of IL-2 control in [20] amounted to 26%. This substance also displayed an IFN-gamma release in MLR at 40 µg/ml, % of IL-2 control in assay [20] of 36%.
On to “anti-TIM3 reference antibody 344823 (R&D Systems)”, for which the values for the specific binding MFI in assay [1], in [2] and in [3] were 814 MFI, 1010 MFI and 917 MFI, respectively. In addition, the results for the MFI in assay [4], in assay [5] and in assay [6] were 143 MFI, 121 MFI and 158 MFI, respectively. Also, the Max % inhibition of binding in assay [9] was determined as 99%; in [13] it was 0%; in assay [14] it was 3%; in assay [18], 0%.
With Rat-IgG2A (isotype control) (antibody), the specific binding MFI in assay [1] amounted to 70 MFI; in assay [2], 71 MFI; in assay [3] it was 68 MFI. For the same substance, the MFI came to 91 MFI in assay [4], 86 MFI in [5] and 84 MFI in assay [6].
